Test results: patent publication US10556014B2, “Compounds containing a vascular disrupting agent” (Incanthera Ltd, priority 2007, dated 2020)
Where a SMILES comes first, the peptide text is derived from it. [ ]: non-standard residue; d: D form. The star is where a group is joined. NH(Colchicin-10-yl) = COc1cc2c(c(OC)c1OC)-c1ccc(N*)c(=O)cc1[C@@H](NC(C)=O)CC2; FITC = O=C1OC2(c3ccc(O)cc3Oc3cc(O)ccc32)c2ccc(NC(=S)*)cc21; hPhe = N[C@@H](CCc1ccccc1)C(=O)O; Cit = NC(=O)NCCC[C@H](N)C(=O)O; βAla = NCCC(=O)O

How the values were obtained:
[1] = Ex vivo stability in normal mouse plasma (LC/MS/MS); type: in vitro ADME
From the text: (§1) [drawing 10] • a) Prodrug-1 has been screened using normal mouse plasma, normal mouse liver homogenate and experimental human tumour model homogenate (HT1080 xenograft; known to express majority of MMPs) ex vivo. Prodrug cleavage and metabolism were detected using LC/MS/MS. • a. Prodrug-1 was stable in plasma and liver, supporting systemic stability of these therapeutics (FIG. 1). • b. […] Plasma, tissues and tumours were collected at regular intervals post-dosing. Levels of prodrug and VDA2 were assessed by LC/MS/MS. • a. […] (FIG. 2) • d. […] VDA2 levels were detected at high levels in tumour tissue following prodrug-1 administration (FIG. 3) • f.
(§2) [drawing 11] • d) Compound 1 was modified in order to change the MMP-targeting of the compound from being pan-MMP to MT-MMP selective (Prodrug-2) • a. Arginine was incorporated in place of the Glutamic acid at the P4 position • b. […] Prodrug-2 cleavage and metabolism were detected using LC/MS/MS. • a. […] Prodrug-2 is not cleaved by recombinant MMP-9, in contrast to prodrug-1 • d. […] Plasma, tissues and tumours were collected at regular intervals post-dosing. Levels of prodrug-2 and VDA2 were assessed by LC/MS/MS. • a. […] Liver was representative of all normal tissues analysed. (FIG. 5) • d. […] Levels of VDA2 in tumour were 10 times higher than that detected in normal tissues following administration of prodrug-2 (FIG. 6) • g. […]

[2] = Ex vivo stability in normal mouse liver homogenate (LC/MS/MS); type: in vitro ADME
From the text: as §1, §2

[3] = test system: HT1080 xenograft tumour homogenate; test: Ex vivo metabolism in experimental human tumour model homogenate (HT1080 xenograft); type: in vitro ADME
From the text: as §1, §2

[4] = Levels of prodrug and VDA2 in plasma, tissues and tumour after intraperitoneal dosing of mice bearing subcutaneous HT1080 tumour; type: in vivo; details: HT1080 tumour bearing mice; for prodrug tissue distribution: all tissues analysed
From the text: as §1
[drawing 11] • d) Compound 1 was modified in order to change the MMP-targeting of the compound from being pan-MMP to MT-MMP selective (Prodrug-2) • a. Arginine was incorporated in place of the Glutamic acid at the P4 position • b. […] Prodrug-2 cleavage and metabolism were detected using LC/MS/MS. • a. […] Prodrug-2 is not cleaved by recombinant MMP-9, in contrast to prodrug-1 • d. […] Plasma, tissues and tumours were collected at regular intervals post-dosing. Levels of prodrug-2 and VDA2 were assessed by LC/MS/MS. • a. […] Liver was representative of all normal tissues analysed. (FIG. 5) • d. VDA2 was undetectable in plasma following administration of prodrug-2 (FIG. 6) • e. […] Levels of VDA2 in tumour were 10 times higher than that detected in normal tissues following administration of prodrug-2 (FIG. 6) • g. High levels of prodrug-2 and VDA2 were still detectable in tumour 48 hours post administration.

| SMILES | stability in plasma [1] | stability in liver homogenate [2] | metabolism in tumour homogenate expressing high MT-MMP levels ([3]; HT1080 homogenate, relative to homogenate expressing low MT-MMP levels (MCF7)) | VDA2 level in plasma following prodrug administration [4] | VDA2 levels in tumour following prodrug administration [4] | levels of VDA2 in tumour relative to normal tissues following prodrug administration [4] [times] | prodrug levels in the tumour compared with other tissues [4] | VDA2 level in tumour 48 hours post prodrug administration ([4]; 48 hours) | prodrug level in tumour 48 hours post administration ([4]; 48 hours) | prodrug tissue distribution [4] | metabolism in tumour homogenate ([3]; HT1080 xenograft homogenate (expresses majority of MMPs)) | VDA2 levels in normal tissues following prodrug administration [4] | VDA2 level in normal tissues after 24 hours post-dosing with prodrug ([4]; 24 hours) | VDA2 level in tumour after 24 hours post-dosing with prodrug ([4]; 24 hours) | prodrug level after 24 hours post-dosing ([4]; 24 hours) |
| --- | --- | --- | --- | --- | --- | --- | --- | --- | --- | --- | --- | --- | --- | --- | --- |
| COc1cc2c(c(OC)c1OC)-c1ccc(NC(=O)[C@H](Cc3ccc(O)cc3)NC(=O)[C@H](CC(C)C)NC(=O)[C@H](Cc3ccc(O)cc3)NC(=O)[C@H](CCc3ccccc3)NC(=O)CNC(=O)[C@H](CCCNC(N)=O)NC(=O)[C@H](CO)NC(=O)[C@H](CCCNC(=N)N)NC(=O)CCNC(=S)Nc3ccc4c(c3)C(=O)OC43c4ccc(O)cc4Oc4cc(O)ccc43)c(=O)cc1[C@@H](NC(C)=O)CC2 [Prodrug-2] ({FITC-βAla}-RS[Cit]G[hPhe]YLY-{NH(Colchicin-10-yl)}) | remained intact | remained stable | metabolised rapidly | undetectable | High concentrations | 10 | Highest | High levels | High levels | accumulated and was detected in all tissues analysed | – | – | – | – | – |
| COc1cc2c(c(OC)c1OC)-c1ccc(NC(=O)[C@H](Cc3ccc(O)cc3)NC(=O)[C@H](CC(C)C)NC(=O)[C@H](Cc3ccc(O)cc3)NC(=O)[C@H](CCc3ccccc3)NC(=O)CNC(=O)[C@H](CCCNC(N)=O)NC(=O)[C@@H]3CCCN3C(=O)[C@H](CCC(=O)O)NC(=O)CCNC(=S)Nc3ccc4c(c3)C(=O)OC43c4ccc(O)cc4Oc4cc(O)ccc43)c(=O)cc1[C@@H](NC(C)=O)CC2 [Prodrug-1] ({FITC-βAla}-EP[Cit]G[hPhe]YLY-{NH(Colchicin-10-yl)}) | stable | stable | – | – | high levels | – | Highest | – | – | accumulated and was detected in all tissues analysed | metabolised | detectable at low levels | undetectable | still detectable at high levels | not detectable |
